Like-named read-outs stand apart in the source and are kept apart here.
B1: Ph-CA1: fusion peptide of colicin Ia with Candida albicans alpha-mating pheromone c-terminal to the colicin Ia; SEQ ID NO:5; from plasmid pCHCCA1 (protein)
chain: DAINFTTEFLKSVSEKYGAKAEQLAREMAGQAKGKKIRNVEEALKTYEKYRADINKKINAKDRAAIAAALESVKLSDISSNLNRFSRGLGYAGKFTSLADWITEFGKAVRTENWRPLFVKTETIIAGNAATALVALVFSILTGSALGIIGYGLLMAVTGALIDESLVEKANKFWGIGFRLYNFGYFEPGK
modifications: Amino acid sequence of Ph-CA1
notes: fusion peptide of colicin Ia with Candida albicans alpha-mating pheromone c-terminal to the colicin Ia; from plasmid pCHCCA1
B2: Ph-CA2: fusion peptide of colicin Ia with Candida albicans alpha-mating pheromone n-terminal to the colicin Ia; SEQ ID NO:7; from plasmid pCHCCA2 (protein)
chain: GFRLYNFGYFEPGKDAINFTTEFLKSVSEKYGAKAEQLAREMAGQAKGKKIRNVEEALKTYEKYRADINKKINAKDRAAIAAALESVKLSDISSNLNRFSRGLGYAGKFTSLADWITEFGKAVRTENWRPLFVKTETIIAGNAATALVALVFSILTGSALGIIGYGLLMAVTGALIDESLVEKANKFWGI
modifications: Amino acid sequence of Ph-CA2
notes: fusion peptide of colicin Ia with Candida albicans alpha-mating pheromone n-terminal to the colicin Ia; from plasmid pCHCCA2

Columns and labels:
[1] = system: ATCC 10231 C. albicans cells; test: cell growth inhibition assay in M-H liquid medium (turbidity, filament sedimentation, microscopy); assay type: cell-based, Candida albicans; conditions: for spores under microscope: 2 ul treated medium on a slide, Ph-CA1 10 ug/ml, amphotericin B 2 ug/ml, FIG. 5
Description: FIG. 4 depicts the inhibition effects of Ph-CA against the growth of ATCC 10231 C. albicans cells in M-H liquid medium. The amount of sedimentary fungal filaments at the bottom of flasks indicated the inhibition effects of treatment agents. (A) Control, (B) fluconazole, (C) amphotericin B, (D) Ph-SA, (E) Ph-CA2 produced by pCHCCA2 plasmid and (F) Ph-CA1.
FIG. 5 depicts the inhibition effects of Ph-CA against the growth of C. albicans cells in liquid medium. The amount of spores and filaments of ATCC 10231 C. albicans cells indicated the inhibition effects. (A) Control, (B) fluconazole, (C) amphotericin B, (D) Ph-SA, (E) Ph-CA2 (F) Ph-CA1. X400.
In vitro cell growth inhibition assays were performed in 100 ml Klett flasks containing 10 ml of M-H medium which were monitored turbimetrically with a BioRad 550 microplate reader at OD595 nm every 60 min. The filament (mycelium) precipitation at the bottom of flask was counted with a digital photo-recorder every 6 hrs. Cells were inoculated to an initial cell density of about 2.5×10^5 CFU/ml and shaken at 200 rpm on an orbital shaker at 35° C. Sedimentary fungal filaments appeared in about 36 hrs growing.
Ph-CA1 and Ph-CA2 were added at the start of the culture. The same amount of borate stock solution (50 mM borate, PH9.0), Ph-SA (pheromonicin constructed by colicin Ia and staphylococcal pheromone AgrD1)(10 ug/ml) and several antibiotics preparations (2 ug/ml amphotericin B, 6 ug/ml fluconazole) were used as controls. All assays were expressed in turbidometric absorbance units measured at 595 nm and pictures of the filament sedimentation at the bottom of the flask were taken.

Magnaporthe grisea [2] = assay type: in vivo, rice (seed, gangyou 725); conditions: for Grades of impaired leaves 0 (number of leaves) / Grades of impaired leaves 1 (number of leaves) / Grades of impaired leaves 3 (number of leaves) / Grades of impaired leaves 5 (number of leaves) / Incident rate / Infected index / Protecting efficacy: seven days after treatment, sprayed twice: tricyclazole 0.5 and 1 mg/ml, Ph-CA1 1 and 2 ug/ml, 200 leaves
Magnaporthe grisea [3] = assay type: in vivo, rice (seed, gangyou 725); conditions: sprayed once at head stage: tricyclazole 1 mg/ml, Ph-CA1 2 ug/ml
[4] = system: Candida albicans (ATCC 10231); assay type: cell-based
[5] = system: Cryptococcus neoformans (Huaxi 30168 strain); assay type: cell-based
[6] = system: Aspergillus flavus (Huaxi 30255 strain); assay type: cell-based
[7] = system: Magnaporthe grisea (ACCC 30320 strain); assay type: cell-based; conditions: PDA solid medium; 100 ul Ph-CA1 25 and 50 ug/ml; FIG. 9
[8] = system: Fusarium moniforme (ACCC 30133 strain); assay type: cell-based
[9] = system: Cryptococcus neoformans, Aspergillus flavus, Magnaporthe grisea and Fusarium moniforme cells; assay type: cell-based; conditions: on a molar basis
[10] = system: ATCC 10231 C. albicans cells; test: fluorescent imaging with FITC/propidium iodide; assay type: cell-based, Candida albicans; conditions: 10 ug/ml, 24 hrs; 50 nM FITC/600 nM propidium iodide
Experimental: FIG. 6 depicts the fluorescent imaging of ATCC 10231 C. albicans cells treated by Ph-CA1 and stained with 50 nM FITC/600 nM propidium iodide. […] X400.

C. albicans (ATCC 10231) = test: systemic candidiasis in mice, survival; assay type: in vivo, KungMing mice
Experimental: KungMing mice, half male and half female, weighing 18-22 g were injected intraperitoneally with 0.5 ml of C. albicans (ATCC 10231), 10^8 CFU/ml. One hour after C. albicans injection, mice were injected intraperitoneally with 0.9% saline […] alone as control (n=10) (C), or with amphotericin B (n=10, 1 ug/gm/day) (B), or with Ph-CA1 (n=10, 5 ug/gm/day) (A) daily for 14 days. The number of surviving animals was determined every 24 hours (FIG. 11).
KungMing mice, half male and half female, weighing 18-22 g were injected intraperitoneally with 0.7 ml of C. albicans (ATCC 10231), 10^8 CFU/ml. One hour after C. albicans injection, mice were injected in the tail vein with 0.9% saline alone as control (n=10) (C), or with amphotericin B (n=10, 1 ug/gm) (B), or with Ph-CA1 (n=10, 5 ug/gm) (A). The mice were then injected intraperitoneally with 0.9% saline alone, or with amphotericin B (n=10, 1 ug/gm), or with Ph-CA1 (n=10, 5 ug/gm) each day. The number of surviving animals was determined every 24 hours (FIG. 12).

[11] = repeated intraperitoneal dosing in mice, bodyweight and histology; assay type: in vivo, KungMing mice; conditions: 200 ug/mouse/day intraperitoneally for 20 days
Experimental: KungMing mice (n=10), half male and half female, weighing 18-22 g were injected intraperitoneally with Ph-CA1 (200 ug/mouse/day) for 20 days. The bodyweight of all mice was increased.

| Molecule | Grades of impaired leaves 0 (number of leaves) (Magnaporthe grisea [2]) | Grades of impaired leaves 1 (number of leaves) (Magnaporthe grisea [2]) | Grades of impaired leaves 3 (number of leaves) (Magnaporthe grisea [2]) | Grades of impaired leaves 5 (number of leaves) (Magnaporthe grisea [2]) | Incident rate (Magnaporthe grisea [2]) | Infected index (Magnaporthe grisea [2]) | Protecting efficacy (Magnaporthe grisea [2]) | Damage rate (Magnaporthe grisea [3]) [%] | Grades of impaired ears 0 (number of ears) (Magnaporthe grisea [3]) | Grades of impaired ears 1 (number of ears) (Magnaporthe grisea [3]) | Grades of impaired ears 3 (number of ears) (Magnaporthe grisea [3]) | Grades of impaired ears 5 (number of ears) (Magnaporthe grisea [3]) | Grades of impaired ears 7 (number of ears) (Magnaporthe grisea [3]) | Grades of impaired ears 9 (number of ears) (Magnaporthe grisea [3]) | Impaired ears rate (Magnaporthe grisea [3]) [%] | Infected index (Magnaporthe grisea [3]) | spores under microscope [1] | antifungal effect on Candida albicans in vitro [1] | also measured |
| --- | --- | --- | --- | --- | --- | --- | --- | --- | --- | --- | --- | --- | --- | --- | --- | --- | --- | --- | --- |
| OC(Cn1cncn1)(Cn1cncn1)c1ccc(F)cc1F [Fluconazole, fluconazole, reference compound] | – | – | – | – | – | – | – | – | – | – | – | – | – | – | – | – | – | – | effect on growth of C. albicans ([1]; 6 ug/ml, M-H liquid medium): no effect |
| Cc1cccc2sc3nncn3c12 [Tricyclazole, tricyclazole, reference compound] | 172 | 10 | 12 | 6 | 14 | 4.22 | 75.83 | 1.63 | 184 | 16 | 9 | 2 | 2 | 0 | 13.62 | 3.5 | – | – | – |
| C[C@@H]1[C@H](O)[C@@H](C)/C=C/C=C/C=C/C=C/C=C/C=C/C=C/[C@H](O[C@@H]2O[C@H](C)[C@@H](O)[C@H](N)[C@@H]2O)C[C@@H]2O[C@](O)(C[C@@H](O)C[C@@H](O)[C@H](O)CC[C@@H](O)C[C@@H](O)CC(=O)O[C@H]1C)C[C@H](O)[C@H]2C(=O)O [amphotericin B, reference compound] | – | – | – | – | – | – | – | – | – | – | – | – | – | – | – | – | scarcely observed | – | effect on growth of C. albicans ([1]; 2 ug/ml, M-H liquid medium): completely inhibited |
| B1 | 67 | 12 | 13 | 8 | 16.5 | 5.05 | 70.94 | 0.53 | 218 | 19 | 5 | 0 | 0 | 0 | 9.92 | 1.56 | scarcely observed | definite antifungal effect | inhibition zone [4]: inhibition-zone; antifungal effects [5]: definite antifungal effects; antifungal effects [6]: definite antifungal effects; antifungal effects [7]: definite antifungal effects; antifungal effects [8]: definite antifungal effects; antifungal effects relative to known antifungal antibiotics [9]: one hundred to one thousand times greater; effect on growth of C. albicans ([1]; 10 ug/ml, M-H liquid medium): completely inhibited; inhibitory effect relative to amphotericin B ([1]; on a molar basis, Ph-CA1 70 kDa, amphotericin B about 0.9 kDa): approximately ten times greater; cell membrane damage (propidium iodide entry, cells stained red) [10]: cells became red; antifungal effect on Candida albicans in vivo (C. albicans (ATCC 10231); in vivo): definite antifungal effect; in vivo antifungal activity against systemic candidiasis relative to amphotericin B (C. albicans (ATCC 10231); on a molar basis, Ph-CA1 5 ug/gm, amphotericin B 1 ug/gm): at least twenty times greater; bodyweight [11]: increased; microscopic findings in livers, kidneys or spleens ([11]; hematoxylin and eosin): no microscopic evidence of necrosis or inflammation; total effects against rice blast disease relative to tricyclazole (Magnaporthe grisea [2]; concentration and molar basis taken together, both in vivo protecting assays (Tables I and II)): 10^4 to 10^5 times; protecting effects relative to tricyclazole (Magnaporthe grisea [2]; on a molar basis, both in vivo protecting assays (Tables I and II)): three hundred times greater |
| B2 | – | – | – | – | – | – | – | – | – | – | – | – | – | – | – | – | – | almost had no effect | inhibition effect relative to that of Ph-CA1 ([1]; 10 ug/ml, M-H liquid medium): about 30% |

— patent publication US8663916B2 (priority 2006, dated 2014)
